Reference: article doi:10.1101/2021.03.30.437644
Substitutions are numbered along the chain they refer to.

Assays:
bZIP44 [1] = molecular target: T1, bZIP44 (Arabidopsis thaliana (Col-0), UniProt C0Z2L5 1-173); experiment: competition EMSA
bZIP16 [2] = molecular target: T2, bZIP16 (Arabidopsis thaliana (Col-0), UniProt Q501B2 1-409); experiment: competition EMSA
T2 sequence: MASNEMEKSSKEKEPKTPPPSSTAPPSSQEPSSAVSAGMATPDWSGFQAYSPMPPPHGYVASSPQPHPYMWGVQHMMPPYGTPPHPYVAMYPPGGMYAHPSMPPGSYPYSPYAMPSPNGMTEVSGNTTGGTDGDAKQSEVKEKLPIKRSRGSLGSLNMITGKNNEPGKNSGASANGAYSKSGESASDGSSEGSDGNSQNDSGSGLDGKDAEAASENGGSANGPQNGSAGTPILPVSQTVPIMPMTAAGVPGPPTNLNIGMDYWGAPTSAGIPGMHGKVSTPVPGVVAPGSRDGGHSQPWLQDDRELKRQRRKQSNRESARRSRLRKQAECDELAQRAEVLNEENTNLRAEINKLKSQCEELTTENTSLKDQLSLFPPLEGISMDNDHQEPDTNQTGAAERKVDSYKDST

HYH (bZIP64) [3] = molecular target: T3, HYH (bZIP64) (Arabidopsis thaliana (Col-0), UniProt Q8W191 1-149); experiment: competition EMSA
T3 sequence: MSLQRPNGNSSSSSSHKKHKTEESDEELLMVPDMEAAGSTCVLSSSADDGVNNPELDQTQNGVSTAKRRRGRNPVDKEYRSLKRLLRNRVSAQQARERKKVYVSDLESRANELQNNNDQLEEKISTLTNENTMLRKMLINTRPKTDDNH

SLIM1 = molecular target: T4, SLIM1 (Arabidopsis thaliana (Col-0), UniProt O23116 1-567); experiment: EMSA
T4 sequence: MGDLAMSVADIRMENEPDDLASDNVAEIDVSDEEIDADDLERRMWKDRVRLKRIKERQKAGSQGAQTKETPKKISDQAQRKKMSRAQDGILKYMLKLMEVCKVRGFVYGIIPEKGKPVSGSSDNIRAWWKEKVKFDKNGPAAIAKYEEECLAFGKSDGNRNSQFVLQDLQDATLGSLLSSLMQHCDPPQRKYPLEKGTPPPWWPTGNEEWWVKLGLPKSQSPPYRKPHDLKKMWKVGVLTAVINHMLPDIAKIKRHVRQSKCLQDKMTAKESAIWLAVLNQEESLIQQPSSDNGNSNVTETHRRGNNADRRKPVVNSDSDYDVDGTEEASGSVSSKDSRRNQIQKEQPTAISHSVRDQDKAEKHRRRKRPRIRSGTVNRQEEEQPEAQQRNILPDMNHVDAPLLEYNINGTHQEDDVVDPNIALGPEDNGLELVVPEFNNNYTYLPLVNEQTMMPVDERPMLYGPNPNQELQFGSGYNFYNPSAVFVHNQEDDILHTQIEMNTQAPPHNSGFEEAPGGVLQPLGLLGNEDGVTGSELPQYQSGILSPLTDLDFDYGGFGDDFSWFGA

bZIP44 [4] = molecular target: T1, bZIP44; experiment: EMSA
bZIP16 [5] = molecular target: T2, bZIP16; experiment: EMSA
HYH (bZIP64) [6] = molecular target: T3, HYH (bZIP64); experiment: EMSA
GBF1 (bZIP41) = molecular target: T5, GBF1 (bZIP41) (Arabidopsis thaliana (Col-0), UniProt P42774 1-315); experiment: EMSA
T5 sequence: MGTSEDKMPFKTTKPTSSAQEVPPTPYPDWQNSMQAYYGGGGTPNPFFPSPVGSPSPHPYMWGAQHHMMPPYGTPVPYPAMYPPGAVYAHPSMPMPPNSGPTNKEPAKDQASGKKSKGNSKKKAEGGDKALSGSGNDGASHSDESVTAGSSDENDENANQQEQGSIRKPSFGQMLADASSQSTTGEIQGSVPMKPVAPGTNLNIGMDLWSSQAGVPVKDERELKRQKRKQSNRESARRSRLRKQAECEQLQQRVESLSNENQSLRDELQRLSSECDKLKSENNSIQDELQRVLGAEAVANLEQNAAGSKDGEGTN

T1 sequence (C0Z2L5 whole entry): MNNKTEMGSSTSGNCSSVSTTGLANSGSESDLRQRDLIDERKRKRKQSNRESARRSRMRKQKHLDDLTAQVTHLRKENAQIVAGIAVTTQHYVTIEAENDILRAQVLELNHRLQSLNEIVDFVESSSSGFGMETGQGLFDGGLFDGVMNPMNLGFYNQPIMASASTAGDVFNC

B1: Mutated probe 4 (dsDNA)
DNA 1: GACGGATAGGGTAAAAGGCACTATTTTATA
DNA 2: TATAAAATAGTGCCTTTTACCCTATCCGTC
binding result (bZIP44 [1]): no binding | binding result (bZIP16 [2]): no binding | binding result (HYH (bZIP64) [3]): no binding

B2: Probe 1 (proxSDI1) (dsDNA)
DNA 1: GTGGTAAGAAGTCTCCAAGTGACGTGGCAGCTTCTATGAACAGAGACGAA
DNA 2: TTCGTCTCTGTTCATAGAAGCTGCCACGTCACTTGGAGACTTCTTACCAC
binding result (SLIM1): binds

B3: Probe 2 (proxSDI2) (dsDNA)
DNA 1: GAGAGATAAAGAAGGTTTCTTCATTTAGAAACAGAGACACGAAGTTTGCG
DNA 2: CGCAAACTTCGTGTCTCTGTTTCTAAATGAAGAAACCTTCTTTATCTCTC
binding result (SLIM1): binds

B4: Probe 4 (proxSDI2) (dsDNA)
DNA 1: B1 DNA 1 with A14C, A15G, A16T
DNA 2: B1 DNA 2 with T15A, T16C, T17G
binding result (bZIP44 [4]): binds | binding result (bZIP16 [5]): binds | binding result (HYH (bZIP64) [6]): binds

B5: Probe 3 (proxSDI2) (dsDNA)
DNA 1: GACCAGCCCGCGGTATTTTAGATCCAGTTGACGATAATGAACCAAGACGA
DNA 2: TCGTCTTGGTTCATTATCGTCAACTGGATCTAAAATACCGCGGGCTGGTC
binding result (GBF1 (bZIP41)): binds
